Data taken from US20180258158A1 (Bristol-Myers Squibb, published 2018).

What was measured:
[1] = biological target: T1, human serum albumin (HSA), full length (human, UniProt P02768 25-609); experiment: direct binding ELISA, coated HSA, anti-His-HRP; parameters: unit not given here
T1 construct: mature; Immobilized on CM5 chip (SPR) or coated on plates (ELISA)
Description: (§1) Direct binding ELISA assays were conducted as follows. Full length human and murine serum albumin at 10ug/ml in PBS were coated on Nunc Maxisorp plates overnight at 4° C. Plates were blocked in casein/PBS buffer. PKE Adnectins were allowed to bind over a 4-point concentration range of 0.032-4 uM for HSA and 0.008-1 uM for MSA. Bound Adnectin was detected by anti-His antibody conjugated with HRP (horseradish peroxidase) diluted 1:1500 in casein/PBS. Plates were developed with TMB substrate and absorbance read at 450 nm. Adnectins were binned as high, medium and low affinity binders based on the observed Ymax of the concentration response curves.

[2] = biological target: T2, mouse serum albumin (MSA), full length (mouse, UniProt P07724 25-608); experiment: direct binding ELISA, coated MSA, anti-His-HRP; parameters: unit not given here
T2 construct: mature; Immobilized on CM5 chip (SPR) or coated on plates (ELISA); also called mouse albumin; murine serum albumin
Description: as §1

[3] = biological target: T1, human serum albumin (HSA), full length; experiment: SPR off-rate ratio to parent ADX_7016_A01, HSA, 25 C
Description: (§2) Measurements were conducted by SPR and ELISA. SPR was conducted as follows. Full length HSA or mouse albumin was immobilized on a Biacore T series CM5 chip at 15 ug/mL in 10 mM acetate buffer (pH 5.0) buffer using standard NHS/EDC coupling, to a surface density of approximately 1000-1100 RU. For off-rate measurements at 25° C., PKE Adnectins were applied as analytes at 500 nM in HBS-P+(0.01 M HEPES pH 7.4, 0.15 M NaCl, 0.005% v/v Surfactant P20) running buffer at a flow rate of 20ul/min for 120 s over the immobilized albumins, followed by 800 s for dissociation. […] Regeneration of the chip surface between cycles was accomplished with two 30 second pulses of 10 mM Glycine, pH 2.0. Kinetic traces of reference-subtracted sensorgrams were fit to a 1:1 binding model for affinity using the Biaevaluation software. Only the dissociation phase was fit for determination of off-rates.

[4] = biological target: T2, mouse serum albumin (MSA), full length; experiment: SPR off-rate ratio to parent ADX_7016_A01, MSA, 25 C
Description: as §2

[5] = biological target: T1, human serum albumin (HSA), full length; experiment: SPR off-rate, immobilized HSA, 500 nM Adnectin, 25 C
Description: as §2

[6] = biological target: T2, mouse serum albumin (MSA), full length; experiment: SPR off-rate, immobilized MSA, 500 nM Adnectin, 25 C
Description: as §2

T1 sequence (P02768 25-609): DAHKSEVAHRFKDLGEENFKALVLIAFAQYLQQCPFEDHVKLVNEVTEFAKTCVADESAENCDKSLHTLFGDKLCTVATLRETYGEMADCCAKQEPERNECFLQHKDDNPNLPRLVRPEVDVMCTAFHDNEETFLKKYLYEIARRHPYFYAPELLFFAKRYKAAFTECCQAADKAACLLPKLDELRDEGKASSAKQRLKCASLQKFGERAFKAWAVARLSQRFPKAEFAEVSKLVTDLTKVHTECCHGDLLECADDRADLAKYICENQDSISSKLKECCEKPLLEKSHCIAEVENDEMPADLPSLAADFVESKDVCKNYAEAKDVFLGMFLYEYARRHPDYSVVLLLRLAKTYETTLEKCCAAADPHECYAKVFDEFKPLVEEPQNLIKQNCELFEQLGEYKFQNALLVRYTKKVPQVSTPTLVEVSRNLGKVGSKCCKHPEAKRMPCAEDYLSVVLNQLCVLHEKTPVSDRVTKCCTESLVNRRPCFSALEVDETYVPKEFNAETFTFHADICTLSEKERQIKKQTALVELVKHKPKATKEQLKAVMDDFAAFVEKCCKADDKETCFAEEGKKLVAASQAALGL

Binder	HSA DB ELISA (OD450) Ymax obs [1]	HSA DB ELISA (OD450) Ymin obs [1]	MSA DB ELISA (OD450) Ymax obs [2]	MSA DB ELISA (OD450) Ymin obs [2]	HSA kd/Parent kd [3]	MSA kd/Parent kd [4]	koff [5] [s⁻¹]	koff [6] [s⁻¹]
ADX_6727_B01 (K85S) (designed binder, Full His6-tagged entry) MGVSDVPRDLEVVAATPTSLLISWDAPAVTVRYYRITYGREVQKYSDLGPLYIYQEFTVPGSKSTATISGLKPGVDYTITVYAVTGSGESPASSSPISINYRTEIDKPSQHHHHHH	97	94	91	88	1.2	1.2	0.000321	0.000501
ADX_6727_B05 (I43S/K85T) (designed binder, Full His6-tagged entry) MGVSDVPRDLEVVAATPTSLLISWDAPAVTVRYYRITYGREVQKYSDLGPLYSYQEFTVPGSKSTATISGLKPGVDYTITVYAVTGSGESPASSTPISINYRTEIDKPSQHHHHHH	60	4	63	2	28	18.2	0.00749	0.00781
ADX_6727_B11 (Q33D/K85S) (designed binder, Full His6-tagged entry) MGVSDVPRDLEVVAATPTSLLISWDAPAVTVRYYRITYGREVDKYSDLGPLYIYQEFTVPGSKSTATISGLKPGVDYTITVYAVTGSGESPASSSPISINYRTEIDKPSQHHHHHH	12	1	11	1	56	–	0.0151	–
ADX_6727_C01 (K85A) (designed binder, Full His6-tagged entry) MGVSDVPRDLEVVAATPTSLLISWDAPAVTVRYYRITYGREVQKYSDLGPLYIYQEFTVPGSKSTATISGLKPGVDYTITVYAVTGSGESPASSAPISINYRTEIDKPSQHHHHHH	98	88	93	90	1.1	1.2	0.000297	0.000509
ADX_6727_C03 (Y35S) (designed binder, Full His6-tagged entry) MGVSDVPRDLEVVAATPTSLLISWDAPAVTVRYYRITYGREVQKSSDLGPLYIYQEFTVPGSKSTATISGLKPGVDYTITVYAVTGSGESPASSKPISINYRTEIDKPSQHHHHHH	99	31	95	23	4	2.8	0.00107	0.00121
ADX_6727_C07 (R30A/K85S) (designed binder, Full His6-tagged entry) MGVSDVPRDLEVVAATPTSLLISWDAPAVTVRYYRITYGAEVQKYSDLGPLYIYQEFTVPGSKSTATISGLKPGVDYTITVYAVTGSGESPASSSPISINYRTEIDKPSQHHHHHH	100	44	94	6	8	7.8	0.00218	0.00334
ADX_6727_D01 (K85T) (designed binder, Full His6-tagged entry) MGVSDVPRDLEVVAATPTSLLISWDAPAVTVRYYRITYGREVQKYSDLGPLYIYQEFTVPGSKSTATISGLKPGVDYTITVYAVTGSGESPASSTPISINYRTEIDKPSQHHHHHH	97	88	91	88	1	1	0.000259	0.000433
ADX_6727_D02 (R30N) (designed binder, Full His6-tagged entry) MGVSDVPRDLEVVAATPTSLLISWDAPAVTVRYYRITYGNEVQKYSDLGPLYIYQEFTVPGSKSTATISGLKPGVDYTITVYAVTGSGESPASSKPISINYRTEIDKPSQHHHHHH	99	20	93	17	5	2.8	0.00135	0.00118
